Results from patent US20110200585A1 (GlaxoSmithKline, published 2011).

T1: human IL-7Rα (CD127) on cells (human, UniProt P16871 21-459)
T1 chain: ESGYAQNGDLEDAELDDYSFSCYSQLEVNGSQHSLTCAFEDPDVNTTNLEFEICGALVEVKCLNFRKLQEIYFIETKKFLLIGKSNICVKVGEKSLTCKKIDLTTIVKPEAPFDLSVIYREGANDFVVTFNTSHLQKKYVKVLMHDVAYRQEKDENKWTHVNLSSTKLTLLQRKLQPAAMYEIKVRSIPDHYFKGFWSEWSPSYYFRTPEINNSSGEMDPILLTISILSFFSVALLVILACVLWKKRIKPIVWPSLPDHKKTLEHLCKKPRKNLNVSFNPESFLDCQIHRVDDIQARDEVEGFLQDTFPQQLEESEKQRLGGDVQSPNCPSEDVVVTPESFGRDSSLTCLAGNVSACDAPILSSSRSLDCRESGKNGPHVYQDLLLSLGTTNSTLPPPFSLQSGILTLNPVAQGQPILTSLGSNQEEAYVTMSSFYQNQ

T2: Fcγ2a (His) (UniProt P12318 34-217)
T2 construct: also called Fc Gamma IIa, His form
T2 sequence (looked up): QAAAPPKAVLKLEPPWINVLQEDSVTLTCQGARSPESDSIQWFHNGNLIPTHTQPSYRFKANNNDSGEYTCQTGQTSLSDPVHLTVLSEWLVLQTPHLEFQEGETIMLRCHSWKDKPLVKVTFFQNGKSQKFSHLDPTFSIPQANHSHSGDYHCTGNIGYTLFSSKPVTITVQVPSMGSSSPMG

T3: Fcγ2a (Arg) (UniProt P12318 34-217)
T3 construct: also called Fc Gamma IIa, Arg form
T3 sequence (looked up): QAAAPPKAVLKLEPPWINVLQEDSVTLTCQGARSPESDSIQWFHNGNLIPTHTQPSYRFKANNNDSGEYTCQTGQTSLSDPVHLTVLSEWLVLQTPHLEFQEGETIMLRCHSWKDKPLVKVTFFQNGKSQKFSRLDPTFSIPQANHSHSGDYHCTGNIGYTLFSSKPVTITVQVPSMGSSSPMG

T4: Mouse FcRn (mouse, UniProt Q61559 22-297; P01887 21-119, limits assumed)
T4 sequence (looked up) 1: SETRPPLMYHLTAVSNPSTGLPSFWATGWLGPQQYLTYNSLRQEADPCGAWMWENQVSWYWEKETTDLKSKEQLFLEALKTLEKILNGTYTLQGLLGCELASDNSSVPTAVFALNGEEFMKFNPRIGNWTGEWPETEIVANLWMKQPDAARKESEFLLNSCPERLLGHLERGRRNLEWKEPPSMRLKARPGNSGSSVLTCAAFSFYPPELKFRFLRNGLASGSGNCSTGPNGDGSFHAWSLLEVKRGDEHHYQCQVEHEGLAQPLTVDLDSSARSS
T4 sequence (looked up) 2: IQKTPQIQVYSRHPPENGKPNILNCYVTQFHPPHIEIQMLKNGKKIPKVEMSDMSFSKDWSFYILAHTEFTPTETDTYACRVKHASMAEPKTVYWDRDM

T5: rat FcRn (rat, UniProt P13599 23-298; P07151 21-119, limits assumed)
T5 sequence (looked up) 1: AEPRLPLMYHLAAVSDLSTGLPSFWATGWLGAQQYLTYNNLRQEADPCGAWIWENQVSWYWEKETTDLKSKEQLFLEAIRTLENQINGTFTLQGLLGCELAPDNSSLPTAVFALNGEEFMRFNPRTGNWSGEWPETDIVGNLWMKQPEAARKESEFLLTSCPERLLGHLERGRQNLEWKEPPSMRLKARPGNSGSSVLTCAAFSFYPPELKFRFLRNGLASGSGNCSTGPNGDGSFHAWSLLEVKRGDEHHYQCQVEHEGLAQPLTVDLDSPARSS
T5 sequence (looked up) 2: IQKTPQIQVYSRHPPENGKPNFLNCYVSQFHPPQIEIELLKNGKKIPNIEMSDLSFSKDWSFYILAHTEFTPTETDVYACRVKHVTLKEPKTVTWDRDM

B1: parental 1A11 monoclonal antibody (antibody, V domains shown)
VH: EVQLQQSGPELLKPGASMKISCKASGYSFTGYTMNWVKQSHGKNLEWIGLINPYNGVTSYNQKFKGKATLTVAKSSSTAYMELLSLTSEDSAVYYCARGDGNYWYFDVWGAGTTVTVSS
VL: EIVLTQSPAITAASLGQKVTITCSASSSVTYMHWYQQKSGTSPKPWIYEISKLASGVPVRFSGSGSGTSYSLTISSMEAEDAAIYYCQEWNYPYTFGGGTKLEIK
B2: 1A11 H3L4 (antibody, IgG1)
heavy: not shown
light: EIVLTQSPATLSLSPGERATLSCSASSSVTYMHWYQQKPGQAPRPLIYEISKLASGIPARFSGSGSGTDFTLTISSLEPEDFAVYYCQEWNYPYTFGGGTKVEIKRTVAAPSVFIFPPSDEQLKSGTASVVCLLNNFYPREAKVQWKVDNALQSGNSQESVTEQDSKDSTYSLSSTLTLSKADYEKHKVYACEVTHQGLSSPVTKSFNRGEC
notes: Humanised IgG1 kappa; also called BPC1142; anti-IL7R 1A11 H3L4; copies: 2 + 2
B3: 1A11 H3L4Fc (antibody)
heavy: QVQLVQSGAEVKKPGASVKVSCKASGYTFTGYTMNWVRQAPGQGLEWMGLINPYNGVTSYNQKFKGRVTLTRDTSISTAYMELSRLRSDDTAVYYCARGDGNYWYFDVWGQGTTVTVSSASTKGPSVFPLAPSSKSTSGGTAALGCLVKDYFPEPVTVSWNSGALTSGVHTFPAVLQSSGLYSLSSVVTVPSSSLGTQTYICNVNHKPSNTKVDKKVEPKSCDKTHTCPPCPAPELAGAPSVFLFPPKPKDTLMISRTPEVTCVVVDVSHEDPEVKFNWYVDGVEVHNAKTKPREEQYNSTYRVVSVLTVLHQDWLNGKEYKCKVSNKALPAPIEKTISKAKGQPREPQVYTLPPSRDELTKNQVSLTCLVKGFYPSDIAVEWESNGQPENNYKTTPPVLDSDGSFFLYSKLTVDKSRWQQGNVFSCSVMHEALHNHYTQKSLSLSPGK
light: EIVLTQSPATLSLSPGERATLSCSASSSVTYMHWYQQKPGQAPRPLIYEISKLASGIPARFSGSGSGTDFTLTISSLEPEDFAVYYCQEWNYPYTFGGGTKVEIKRTVAAPSVFIFPPSDEQLKSGTASVVCLLNNFYPREAKVQWKVDNALQSGNSQESVTEQDSKDSTYSLSSTLTLSKADYEKHKVYACEVTHQGLSSPVTKSFNRGEC
notes: also called Fc-disabled anti-IL7R mAb; Fc-disabled 1A11 H3L4; copies: 2 + 2

Columns and labels:
[1] = biological target: T1, human IL-7Rα (CD127) on cells; experiment: cell-based or functional assay
Fcγ3a (Phe) [2] = biological target: T6, Fcγ3a (Phe) (UniProt P08637 17-208); experiment: SPR, ProteOn XPR36; antibody amine-coupled to GLM chip, receptor 8-2048 nM as analyte, equilibrium fit, pH 7.4
T6 construct: also called Fc Gamma IIIa, Phe form
T6 sequence (P08637 17-208): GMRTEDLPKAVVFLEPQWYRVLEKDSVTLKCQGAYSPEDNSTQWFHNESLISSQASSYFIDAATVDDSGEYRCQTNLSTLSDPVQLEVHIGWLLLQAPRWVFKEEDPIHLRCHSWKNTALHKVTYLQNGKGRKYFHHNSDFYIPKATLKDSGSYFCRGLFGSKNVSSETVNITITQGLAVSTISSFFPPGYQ
Description: (§1) The work was carried out on the ProteOn XPR36 surface plasmon resonance machine (BioRad). The antibodies to be tested were coupled to a GLM biosensor chip by primary amine coupling. […] All binding sensograms were double referenced with a 0 nM injection (i.e. buffer alone). The data was fitted to the Equilibrium model inherent to the ProteOn analysis software.

Fcγ (Val) [3] = biological target: T7, Fcγ (Val) (UniProt P08637 17-208); experiment: as above
T7 sequence (P08637 17-208 F176V): as the sequence (P08637 17-208) above, with F160V counted along it
Description: as §1

Fcγ1 = biological target: T8, Fcγ1 (UniProt P12314 16-288); experiment: as above
T8 construct: also called Fc Gamma I
T8 sequence (P12314 16-288): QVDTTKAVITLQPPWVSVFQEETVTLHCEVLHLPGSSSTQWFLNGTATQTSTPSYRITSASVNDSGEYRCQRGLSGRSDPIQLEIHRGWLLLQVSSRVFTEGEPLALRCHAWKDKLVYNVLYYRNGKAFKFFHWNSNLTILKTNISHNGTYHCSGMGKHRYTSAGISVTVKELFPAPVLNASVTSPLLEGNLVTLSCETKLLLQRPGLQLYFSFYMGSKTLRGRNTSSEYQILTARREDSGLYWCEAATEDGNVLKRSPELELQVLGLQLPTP
Description: as §1

Fcγ2a (His) [4] = biological target: T2, Fcγ2a (His); experiment: as above
Description: as §1

Fcγ2a (Arg) = biological target: T3, Fcγ2a (Arg); experiment: as above
Description: as §1

Cyno FcRn = Cyno FcRn (cyno, UniProt Q8SPV9 24-297; Q8SPW0 21-119, limits assumed); experiment: SPR, ProteOn XPR36; antibody amine-coupled to GLM chip, FcRn 8-2048 nM as analyte, equilibrium fit, pH 6.0
Description: as §1

Mouse FcRn = biological target: T4, Mouse FcRn; experiment: as above
Description: as §1

rat FcRn = biological target: T5, rat FcRn; experiment: as above
Description: as §1

Human FcRn = Human FcRn (human, UniProt P55899 24-297; P61769 21-119, limits assumed); experiment: as above
Chain of Human FcRn (P55899 24-297 limits assumed, chain 1 of 2): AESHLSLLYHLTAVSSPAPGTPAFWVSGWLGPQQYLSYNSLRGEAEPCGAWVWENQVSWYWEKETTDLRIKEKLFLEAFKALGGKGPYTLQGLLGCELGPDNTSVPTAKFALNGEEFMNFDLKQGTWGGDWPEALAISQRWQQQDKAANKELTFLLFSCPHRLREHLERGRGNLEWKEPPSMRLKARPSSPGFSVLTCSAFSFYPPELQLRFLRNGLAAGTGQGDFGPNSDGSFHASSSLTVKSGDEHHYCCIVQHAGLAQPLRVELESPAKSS
Chain of Human FcRn (P61769 21-119 limits assumed, chain 2 of 2): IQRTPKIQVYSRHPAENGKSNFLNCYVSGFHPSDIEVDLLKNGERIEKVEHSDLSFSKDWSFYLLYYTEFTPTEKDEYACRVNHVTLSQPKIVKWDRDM
Description: as §1

Fcγ3a (Phe) [5] = biological target: T6, Fcγ3a (Phe); experiment: SPR, ProteOn XPR36; antibody amine-coupled to GLM chip, receptor as analyte
Description: as §1

Fcγ (Val) [6] = biological target: T7, Fcγ (Val); experiment: as above
Description: as §1

Fcγ2a (His) [7] = biological target: T2, Fcγ2a (His); experiment: as above
Description: as §1

Row | Binder | IC50 of inhibition of IL-7 induced STAT5 phosphorylation in human PBMC (flow cytometry) [1] [µg/mL] | Kd (Fcγ3a (Phe) [2]) [nM] | Kd (Fcγ (Val) [3]) [nM] | Kd (Fcγ1) [nM] | Kd (Fcγ2a (His) [4]) [nM] | Kd (Fcγ2a (Arg)) [nM] | Kd (Cyno FcRn) [nM] | Kd (Mouse FcRn) [nM] | Kd (rat FcRn) [nM] | Kd (Human FcRn) [nM] | binding result (Fcγ3a (Phe) [5]) | binding result (Fcγ (Val) [6]) | binding result (Fcγ2a (His) [7])
1 | B1 | 0.088 |  |  |  |  |  |  |  |  |  |  |  | 
2 | B2 |  | 990 | 319 | 21.4 | 1040 | 1250 | 210 | 192 | 145 | 183 |  |  | 
3 | B3 |  |  |  |  |  |  | 248 | 207 | 163 | 158 | no binding (tested: up to 2048 nM receptor) | no binding (tested: up to 2048 nM receptor) | no binding (tested: up to 2048 nM receptor)
